The source of these data is ChEMBL document CHEMBL2074060, “MDR1 P-glycoprotein transports endogenous opioid peptides” (Peptides, 2001).

For this data set, the system named is C[C@@H](NC(=O)[C@@H](N)Cc1ccc(O)cc1)C(=O)NCC(=O)N(C)[C@@H](Cc1ccccc1)C(=O)NCCO. In words: TP_TRANSPORTER: uptake in membrane vesicle from MDR1-expressing SW1573/S1 cell. Format: functional, cell membranes.

Broadly, the Km is the concentration of substrate that gives half-maximal velocity. “ATP-dependent translocase ABCB1 (Homo sapiens)”: the Km is 43 µM.
